According to the supplement of paper PMC11780869:

Tested on: Bacillus subtilis
Test: cleaved RNA product abundance (RNA/gDNA barcode ratio) relative to median wild-type variant (ratio to wild type); higher = more accumulation of the downstream cleavage product
Conditions: cleavage site: cggR-gapA (positions -7 to +36 mutated)
Procedure, shortened: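 Cleaved product abundance is expressed as the RNA:gDNA barcode ratio per construct, scaled to the median construct carrying the unmutated site. The constructs were barcoded, mutagenized RNase Y cleavage-site windows in truncated aprE or tetM reporter mRNAs integrated into the B. subtilis chromosome. Cultures grew in LB at 37°C from OD600 0.0003 to 0.3 before cleaved RNA was gel-selected and barcode-sequenced.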

[1] = experiment (reporter, strain, medium): exp 2b: truncated aprE reporter, strain BJT200
[2] = experiment (reporter, strain, medium): exp 4a: truncated aprE reporter, strain BJT201 with 2% xylose (RNase J1 expressed)

Row | Sequence | cleaved RNA product abundance [1] | cleaved RNA product abundance [2] | cleaved RNA product abundance (experiment (reporter, strain, medium): exp 6: tetM reporter, strain 168)
1 | ACAGACGAAGGAGCCGCAAAGAAGTTATTATGGCATGAATAATCCCTCAATATAAATATCTCTCACTTATTTAAA | 0.0973 | 0.184 | –
2 | ACAGACGAAGGAGCCGCAAAGAAGTTATTATGGGAAGAATAATCCCTCAATATAAATATCTCTCACTTATTTAAA | 0.159 | 0.246 | –
3 | ACAGACGAAGGAGCCGCAAAGAAGTTATTATGGGACGAATAATCCCTCAATATAAATATCTCTCACTTATTTAAA | – | 0.174 | –
4 | ACAGACGAAGGAGCCGCAAAGAAGTTATTATGGGATAAATAATCCCTCAATATAAATATCTCTCACTTATTTAAA | 0.31 | 0.362 | –
5 | ACAGACGAAGGAGCCGCAAAGAAGTTATTATGGGATCAATAATCCCTCAATATAAATATCTCTCACTTATTTAAA | 0.23 | – | –
6 | ACAGACGAAGGAGCCGCAAAGAAGTTATTATGGGATGAAAAATCCCTCAATATAAATATCTCTCACTTATTTAAA | – | 0.334 | –
7 | ACAGACGAAGGAGCCGCAAAGAAGTTATTATGGGATGAATAAACCCTCAATATAAATATCTCTCACTTATTTAAA | – | 0.21 | –
8 | ACAGACGAAGGAGCCGCAAAGAAGTTATTATGGGATGAATAACCCCTCAATATAAATATCTCTCACTTATTTAAA | – | 0.194 | –
9 | ACAGACGAAGGAGCCGCAAAGAAGTTATTATGGGATGAATAATCCATCAATATAAATATCTCTCACTTATTTAAA | – | 0.236 | –
10 | ACAGACGAAGGAGCCGCAAAGAAGTTATTATGGGATGAATAATCCCTAAATATAAATATCTCTCACTTATTTAAA | – | 0.514 | –
11 | ACAGACGAAGGAGCCGCAAAGAAGTTATTATGGGATGAATAATCCCTCAAAATAAATATCTCTCACTTATTTAAA | – | 0.277 | –
12 | ACAGACGAAGGAGCCGCAAAGAAGTTATTATGGGATGAATAATCCCTCAACATAAATATCTCTCACTTATTTAAA | – | 0.361 | –
13 | ACAGACGAAGGAGCCGCAAAGAAGTTATTATGGGATGAATAATCCCTCAATATAAAAATCTCTCACTTATTTAAA | 0.279 | 0.391 | –
14 | ACAGACGAAGGAGCCGCAAAGAAGTTATTATGGGATGAATAATCCCTCAATATAAATACCTCTCACTTATTTAAA | 0.348 | 0.44 | –
15 | ACAGACGAAGGAGCCGCAAAGAAGTTATTATGGGATGAATAATCCCTCAATATAAATATCTCTCACTTATTTAAA | 0.302 | 0.407 | –
16 | ACAGACGAAGGAGCCGCAAAGAAGTTATTATGGGATGAATAATCCCTCAATATAATTATCTCTCACTTATTTAAA | – | 0.294 | –
17 | ACAGACGAAGGAGCCGCAAAGAAGTTATTATGGGATGAATAATCCCTCAATATACATATCTCTCACTTATTTAAA | – | 0.538 | –
18 | ACAGACGAAGGAGCCGCAAAGAAGTTATTATGGGATGAATAATCCCTCAATATAGATATCTCTCACTTATTTAAA | – | 0.323 | –
19 | ACAGACGAAGGAGCCGCAAAGAAGTTATTATGGGATGAATAATCCCTCAATATATATATCTCTCACTTATTTAAA | – | 0.503 | –
20 | ACAGACGAAGGAGCCGCAAAGAAGTTATTATGGGATGAATAATCCCTCAATATCAATATCTCTCACTTATTTAAA | – | 0.0948 | –
21 | ACAGACGAAGGAGCCGCAAAGAAGTTATTATGGGATGAATAATCCCTCAATTTAAATATCTCTCACTTATTTAAA | – | 0.169 | –

Row | Sequence | cleaved RNA product abundance [1] | cleaved RNA product abundance [2] | cleaved RNA product abundance (experiment (reporter, strain, medium): exp 6: tetM reporter, strain 168)
22 | ACAGACGAAGGAGCCGCAAAGAAGTTATTATGGGATGAATAATCCCTCATTATAAATATCTCTCACTTATTTAAA | – | 0.528 | –
23 | ACAGACGAAGGAGCCGCAAAGAAGTTATTATGGGATGAATAATCCCTCCATATAAATATCTCTCACTTATTTAAA | 0.361 | – | –
24 | ACAGACGAAGGAGCCGCAAAGAAGTTATTATGGGATGAATAATCCCTCTATATAAATATCTCTCACTTATTTAAA | – | 0.223 | –
25 | ACAGACGAAGGAGCCGCAAAGAAGTTATTATGGGATGAATAATCCCTGAATATAAATATCTCTCACTTATTTAAA | – | 0.663 | –
26 | ACAGACGAAGGAGCCGCAAAGAAGTTATTATGGGATGAATAATCCGTCAATATAAATATCTCTCACTTATTTAAA | – | 0.279 | –
27 | ACAGACGAAGGAGCCGCAAAGAAGTTATTATGGGATGAATAATCCTTCAATATAAATATCTCTCACTTATTTAAA | 0.315 | 0.382 | –
28 | ACAGACGAAGGAGCCGCAAAGAAGTTATTATGGGATGAATAATCTCTCAATATAAATATCTCTCACTTATTTAAA | 0.224 | 0.285 | –
29 | ACAGACGAAGGAGCCGCAAAGAAGTTATTATGGGATGAATAATTCCTCAATATAAATATCTCTCACTTATTTAAA | 0.149 | 0.246 | –
30 | ACAGACGAAGGAGCCGCAAAGAAGTTATTATGGGATGAATACTCCCTCAATATAAATATCTCTCACTTATTTAAA | – | 0.212 | –
31 | ACAGACGAAGGAGCCGCAAAGAAGTTATTATGGGATGATTAATCCCTCAATATAAATATCTCTCACTTATTTAAA | – | 0.414 | –
32 | ACAGACGAAGGAGCCGCAAAGAAGTTATTATGGGATGTATAATCCCTCAATATAAATATCTCTCACTTATTTAAA | 0.31 | – | –
33 | ACAGACGAAGGAGCCGCAAAGAAGTTATTATGGGATTAATAATCCCTCAATATAAATATCTCTCACTTATTTAAA | 0.352 | 0.307 | –
34 | ACAGACGAAGGAGCCGCAAAGAAGTTATTATGGGGTGAATAATCCCTCAATATAAATATCTCTCACTTATTTAAA | – | 0.285 | –
35 | ACAGACGAAGGAGCCGCAAAGAAGTTATTATGGTATGAATAATCCCTCAATATAAATATCTCTCACTTATTTAAA | 0.0925 | 0.14 | –
36 | ACAGACGAAGGAGCCGCAAAGAAGTTATTATGTGATGAATAATCCCTCAATATAAATATCTCTCACTTATTTAAA | – | 0.131 | –
37 | ACAGACGAAGGAGCCGCAAAGAAGTTATTATTGGATGAATAATCCCTCAATATAAATATCTCTCACTTATTTAAA | – | 0.149 | –
38 | ACAGACGAAGGAGCCGCAAAGAAGTTATTCAAGGATGAATAATCCCTCAATATAAATATCTCTCACTTATTTAAA | 0.134 | 0.242 | –
39 | ACAGACGAAGGAGCCGCAAAGAAGTTATTCAGAGATGAATAATCCCTCAATATAAATATCTCTCACTTATTTAAA | 0.167 | 0.159 | –
40 | ACAGACGAAGGAGCCGCAAAGAAGTTATTCAGCGATGAATAATCCCTCAATATAAATATCTCTCACTTATTTAAA | – | 0.0886 | –
41 | ACAGACGAAGGAGCCGCAAAGAAGTTATTCAGGAATGAATAATCCCTCAATATAAATATCTCTCACTTATTTAAA | 0.132 | 0.129 | –
42 | ACAGACGAAGGAGCCGCAAAGAAGTTATTCAGGCATGAATAATCCCTCAATATAAATATCTCTCACTTATTTAAA | 0.0983 | – | –

Row | Sequence | cleaved RNA product abundance [1] | cleaved RNA product abundance [2] | cleaved RNA product abundance (experiment (reporter, strain, medium): exp 6: tetM reporter, strain 168)
43 | ACAGACGAAGGAGCCGCAAAGAAGTTATTCAGGGAAGAATAATCCCTCAATATAAATATCTCTCACTTATTTAAA | – | 0.697 | –
44 | ACAGACGAAGGAGCCGCAAAGAAGTTATTCAGGGATAAATAATCCCTCAATATAAATATCTCTCACTTATTTAAA | – | 1.1 | –
45 | ACAGACGAAGGAGCCGCAAAGAAGTTATTCAGGGATGAACAATCCCTCAATATAAATATCTCTCACTTATTTAAA | – | 0.603 | –
46 | ACAGACGAAGGAGCCGCAAAGAAGTTATTCAGGGATGAATAATACCTCAATATAAATATCTCTCACTTATTTAAA | – | 0.134 | –
47 | ACAGACGAAGGAGCCGCAAAGAAGTTATTCAGGGATGAATAATCCATCAATATAAATATCTCTCACTTATTTAAA | – | 0.319 | –
48 | ACAGACGAAGGAGCCGCAAAGAAGTTATTCAGGGATGAATAATCCCCCAAAATAAATATCTCTCACTTATTTAAA | – | 0.165 | –
49 | ACAGACGAAGGAGCCGCAAAGAAGTTATTCAGGGATGAATAATCCCTAAATATAAATATCTCTCACTTATTTAAA | 0.695 | 0.713 | –
50 | ACAGACGAAGGAGCCGCAAAGAAGTTATTCAGGGATGAATAATCCCTCAATATAAAAATCTCTCACTTATTTAAA | – | 0.461 | –
51 | ACAGACGAAGGAGCCGCAAAGAAGTTATTCAGGGATGAATAATCCCTCAATATAAATAACTCTCACTTATTTAAA | 0.615 | – | –
52 | ACAGACGAAGGAGCCGCAAAGAAGTTATTCAGGGATGAATAATCCCTCAATATAAATATCTCTCACTTATTTAAA | 0.766 | 0.882 | 0.609
53 | ACAGACGAAGGAGCCGCAAAGAAGTTATTCAGGGATGAATAATCCGTCAATATAAATATCTCTCACTTATTTAAA | 0.117 | – | –
54 | ACAGACGAAGGAGCCGCAAAGAAGTTATTCAGGGATGAATAATTCCTCAATATAAATATCTCTCACTTATTTAAA | – | 0.513 | –
55 | ACAGACGAAGGAGCCGCAAAGAAGTTATTCAGGGATGAATTATCCCTCAATATAAATATCTCTCACTTATTTAAA | 0.56 | 0.629 | –
56 | ACAGACGAAGGAGCCGCAAAGAAGTTATTCAGGGATGATTAATCCCTCAATATAAATATCTCTCACTTATTTAAA | 0.532 | – | –
57 | ACAGACGAAGGAGCCGCAAAGAAGTTATTCAGGGATTAATAATCCCTCAATATAAATATCTCTCACTTATTTAAA | 0.815 | 1 | –
58 | ACAGACGAAGGAGCCGCAAAGAAGTTATTCAGGGTTGAATAATCCCTCAATATAAATATCTCTCACTTATTTAAA | – | 0.412 | –
59 | ACAGACGAAGGAGCCGCAAAGAAGTTATTCAGGTATAAATAATCCCTCAATATAAATATCTCTCACTTATTTAAA | – | 0.118 | –
60 | ACAGACGAAGGAGCCGCAAAGAAGTTATTCAGGTATGAATAATCCCTCAATATAAATATCTCTCACTTATTTAAA | – | 0.161 | –
61 | ACAGACGAAGGAGCCGCAAAGAAGTTATTCAGGTATGTATAATCCCTCAATATAAATATCTCTCACTTATTTAAA | – | 0.143 | –
